Reference: publication PMC10570127 (The Journal of Biological Chemistry, 2023)

Experiments:
[1] = test system: CC(=O)N[C@H]1[C@H](Oc2ccc3c(C)cc(=O)oc3c2)O[C@H](COS(=O)(=O)O)[C@@H](O)[C@@H]1O; experiment: Michaelis-Menten kinetics of hydrolysis by purified mutant; format: biochemical, Streptococcus pneumoniae; conditions: active site; pH 7.0
[2] = test system: CC(=O)N[C@H]1[C@H](Oc2ccc([N+](=O)[O-])cc2)O[C@H](COS(=O)(=O)O)[C@@H](O)[C@@H]1O; experiment: as above; format: biochemical, Streptococcus pneumoniae; conditions: active site; pH 7.0
Sp_0475 = molecular target: T1, Sp_0475 (Streptococcus pneumoniae, UniProt A0A0H2UNN2); format: biochemical
T1 sequence (A0A0H2UNN2 1-646): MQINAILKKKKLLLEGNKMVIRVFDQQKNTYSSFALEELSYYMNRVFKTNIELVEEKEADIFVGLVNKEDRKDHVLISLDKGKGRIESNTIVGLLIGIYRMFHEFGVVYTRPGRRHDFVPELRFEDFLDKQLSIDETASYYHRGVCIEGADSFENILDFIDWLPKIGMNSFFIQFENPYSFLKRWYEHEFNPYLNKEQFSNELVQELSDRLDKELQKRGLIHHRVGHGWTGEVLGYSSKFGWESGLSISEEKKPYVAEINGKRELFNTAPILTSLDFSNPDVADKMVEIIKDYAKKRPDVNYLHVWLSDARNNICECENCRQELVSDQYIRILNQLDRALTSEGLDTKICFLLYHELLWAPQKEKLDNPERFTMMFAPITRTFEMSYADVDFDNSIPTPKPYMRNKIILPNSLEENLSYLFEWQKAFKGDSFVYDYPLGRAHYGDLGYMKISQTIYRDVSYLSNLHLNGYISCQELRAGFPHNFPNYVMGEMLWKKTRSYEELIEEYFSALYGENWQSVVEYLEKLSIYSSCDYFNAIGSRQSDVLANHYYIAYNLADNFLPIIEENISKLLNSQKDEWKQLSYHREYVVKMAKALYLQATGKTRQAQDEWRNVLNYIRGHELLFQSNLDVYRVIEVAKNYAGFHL

purified protein [3] = substrate: CC(=O)N[C@H]1[C@H](Oc2ccc3c(C)cc(=O)oc3c2)O[C@H](COS(=O)(=O)O)[C@@H](O)[C@@H]1O; experiment: purified protein; conditions: active site; pH 7.0
purified protein [4] = substrate: CC(=O)N[C@H]1[C@H](Oc2ccc([N+](=O)[O-])cc2)O[C@H](COS(=O)(=O)O)[C@@H](O)[C@@H]1O; experiment: purified protein; conditions: active site; R633 interacts with the sulfate; pH 7.0

“Sp_0475 (Streptococcus pneumoniae TIGR4; D309A)” was tested, and the Km [1] was 1.5 ± 0.1 µM, the kcat [1] was 0.007 ± 0.0001 s⁻¹ and the kcat/Km [1] was 4000 ± 1000 M⁻¹ s⁻¹. The Km [2] was 4.0 ± 0.1 µM.

Molecule CC1=N[C@@H]2[C@@H](O)[C@H](O)[C@@H](CO)O[C@@H]2S1 [GlcNAc-thiazoline] has a Ki (Sp_0475) of 6.6 ± 0.2 mM.

“Sp_0475 (Streptococcus pneumoniae TIGR4; Y436F)” was tested, and the Km [2] was 57 ± 4 µM, the kcat [2] was 0.15 ± 0.002 s⁻¹ and the kcat/Km [2] was 3000 ± 500 M⁻¹ s⁻¹.

B1: Sp_0475 (Streptococcus pneumoniae TIGR4) (protein)
chain: MQINAILKKKKLLLEGNKMVIRVFDQQKNTYSSFALEELSYYMNRVFKTNIELVEEKEADIFVGLVNKEDRKDHVLISLDKGKGRIESNTIVGLLIGIYRMFHEFGVVYTRPGRRHDFVPELRFEDFLDKQLSIDETASYYHRGVCIEGADSFENILDFIDWLPKIGMNSFFIQFENPYSFLKRWYEHEFNPYLNKEQFSNELVQELSDRLDKELQKRGLIHHRVGHGWTGEVLGYSSKFGWESGLSISEEKKPYVAEINGKRELFNTAPILTSLDFSNPDVADKMVEIIKDYAKKRPDVNYLHVWLSDARNNICECENCRQELVSDQYIRILNQLDRALTSEGLDTKICFLLYHELLWAPQKEKLDNPERFTMMFAPITRTFEMSYADVDFDNSIPTPKPYMRNKIILPNSLEENLSYLFEWQKAFKGDSFVYDYPLGRAHYGDLGYMKISQTIYRDVSYLSNLHLNGYISCQELRAGFPHNFPNYVMGEMLWKKTRSYEELIEEYFSALYGENWQSVVEYLEKLSIYSSCDYFNAIGSRQSDVLANHYYIAYNLADNFLPIIEENISKLLNSQKDEWKQLSYHREYVVKMAKALYLQATGKTRQAQDEWRNVLNYIRGHELLFQSNLDVYRVIEVAKNYAGFHL
B1 showed a Km (purified protein [3]) of 264 ± 7 µM, a kcat (purified protein [3]) of 55 ± 0.4 s⁻¹ and a kcat/Km (purified protein [3]) of 210000 ± 60000 M⁻¹ s⁻¹. It also gave a Km (purified protein [4]) of 250 ± 4 µM, a kcat (purified protein [4]) of 65 ± 0.3 s⁻¹ and a kcat/Km (purified protein [4]) of 260000 ± 80000 M⁻¹ s⁻¹.
